Source: the supplement of paper PMC11780869

system: Bacillus subtilis; assay: cleaved RNA product abundance (RNA/gDNA barcode ratio) relative to median wild-type variant (ratio to wild type); higher = more accumulation of the downstream cleavage product; settings: experiment (reporter, strain, medium): exp 6: tetM reporter, strain 168; cleavage site: cggR-gapA (positions -7 to +36 mutated)
Summary of the method: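 Cleaved product abundance is expressed as the RNA:gDNA barcode ratio per construct, scaled to the median construct carrying the unmutated site. The constructs were barcoded, mutagenized RNase Y cleavage-site windows in truncated aprE or tetM reporter mRNAs integrated into the B. subtilis chromosome. Cultures grew in LB at 37°C from OD600 0.0003 to 0.3 before cleaved RNA was gel-selected and barcode-sequenced.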

Sequence	cleaved RNA product abundance
ACAGACGAAGGAGCCGTAAAGAAGTTATTAAGGGATGAATAATCCCTCAATATAAATATCTCTCACTTATTTAAA	1.09
ACAGACGAAGGAGCCTCAAAGAAGTTATTAAGGCATGAATAATCCCTCAATATAAATATCTCTCACTTATTTAAA	0.157
ACAGACGAAGGAGCCTCAAAGAAGTTATTAAGGGATGAATAATCCCTCAATATAAATATCTCTCACTTATTTAAA	1.25
ACAGACGAAGGAGCCTCAAAGAAGTTATTAAGTGATGAATAATCCCTCAATATAAATATCTCTCACTTATTTAAA	0.135
ACAGACGAAGGAGCTGCAAAGAAGTTATTAAGGAATGAATAATCCCTCAATATAAATATCTCTCACTTATTTAAA	0.134
ACAGACGAAGGAGCTGCAAAGAAGTTATTAAGGGATGAATAATCCCTCAATATAAATATCTCTCACTTATTTAAA	0.987
ACAGACGAAGGAGTCGCAAAGAAGTTATTAAGGGATGAATAATCCCTCAATATAAATATCTCTCACTTATTTAAA	1.46

same assay, conditions: experiment (reporter, strain, medium): exp 8a: truncated aprE reporter, strain BJT201 with 2% xylose (RNase J1 expressed); cleavage site: glnRA (positions -5 to +31 mutated)

Sequence	cleaved RNA product abundance
CGACATGTCCCGCTTCTTTCATAATCCGTTAGCAACTGTTTTGCTATATACATTTACCTTTTAAGAGGAGGAATT	1.13
CGACATGTCCCGCTTCTTTCATTAAAACGTTAGCAACTGTTTTGCTATATACATTTACCTTTTAAGAGGAGGAAT	0.868
CGACATGTCCCGCTTCTTTCATTAAACCCTTAGCAACTGTTTTGCTATATACATTTACCTTTTAAGAGGAGGAAT	0.18
CGACATGTCCCGCTTCTTTCATTAAACCGTAAGCAACTGTTTTGCTATATACATTTACCTTTTAAGAGGAGGAAT	0.203
CGACATGTCCCGCTTCTTTCATTAAACCGTGAACAACTGTGTTGCAATATACATGTACCTTTTAAGAGGAGGAAT	0.222
CGACATGTCCCGCTTCTTTCATTAAACCGTTACCAACTGTTTTGCTATATACATTTACCTTTTAAGAGGAGGAAT	0.189
CGACATGTCCCGCTTCTTTCATTAAACCGTTAGAAACTGTTTTGCTATATACATTTACCTTTTAAGAGGAGGAAT	0.147
CGACATGTCCCGCTTCTTTCATTAAACCGTTAGCAACAGTTTTGCTATATACATTTACCTTTTAAGAGGAGGAAT	1.01
CGACATGTCCCGCTTCTTTCATTAAACCGTTAGCAACTGTCTTGCTATATACATTTACCTTTTAAGAGGAGGAAT	0.759
CGACATGTCCCGCTTCTTTCATTAAACCGTTAGCAACTGTTATGCTATATACATTTACCTTTTAAGAGGAGGAAT	0.552
CGACATGTCCCGCTTCTTTCATTAAACCGTTAGCAACTGTTTAACTATATACATTTACCTTTTAAGAGGAGGAAT	0.444
CGACATGTCCCGCTTCTTTCATTAAACCGTTAGCAACTGTTTAGCTATATACATTTACCTTTTAAGAGGAGGAAT	0.248
CGACATGTCCCGCTTCTTTCATTAAACCGTTAGCAACTGTTTCGCTATATACATTTACCTTTTAAGAGGAGGAAT	0.164
CGACATGTCCCGCTTCTTTCATTAAACCGTTAGCAACTGTTTTACTATATACATTTACCTTTTAAGAGGAGGAAT	0.458
CGACATGTCCCGCTTCTTTCATTAAACCGTTAGCAACTGTTTTGATATATACATTTACCTTTTAAGAGGAGGAAT	0.428
CGACATGTCCCGCTTCTTTCATTAAACCGTTAGCAACTGTTTTGCGATATACATTTACCTTTTAAGAGGAGGAAT	0.352
CGACATGTCCCGCTTCTTTCATTAAACCGTTAGCAACTGTTTTGCTACATACATTTACCTTTTAAGAGGAGGAAT	0.237
CGACATGTCCCGCTTCTTTCATTAAACCGTTAGCAACTGTTTTGCTATATAAATTTACCTTTTAAGAGGAGGAAT	1.02
CGACATGTCCCGCTTCTTTCATTAAACCGTTAGCAACTGTTTTGCTATATACATATACCTTTTAAGAGGAGGAAT	0.825
CGACATGTCCCGCTTCTTTCATTAAACCGTTAGCAACTGTTTTGCTATATACATTTACCATTTAAGAGGAGGAAT	1.29

Sequence	cleaved RNA product abundance
CGACATGTCCCGCTTCTTTCATTAAACCGTTAGCAACTGTTTTGCTATATACATTTACCTTTTAAGAGGAGGAAT	0.915
CGACATGTCCCGCTTCTTTCATTAAACCGTTAGCAACTGTTTTGCTATATACATTTACTTTTTAAGAGGAGGAAT	0.665
CGACATGTCCCGCTTCTTTCATTAAACCGTTAGCAACTGTTTTGCTATATACATTTTCCTTTTAAGAGGAGGAAT	0.432
CGACATGTCCCGCTTCTTTCATTAAACCGTTAGCAACTGTTTTGCTATATACTTTTACCTTTTAAGAGGAGGAAT	0.534
CGACATGTCCCGCTTCTTTCATTAAACCGTTAGCAACTGTTTTGCTATATAGATTTACCTTTTAAGAGGAGGAAT	1.35
CGACATGTCCCGCTTCTTTCATTAAACCGTTAGCAACTGTTTTGCTATATCCATTTACCTTTTAAGAGGAGGAAT	0.0869
CGACATGTCCCGCTTCTTTCATTAAACCGTTAGCAACTGTTTTGCTTTATACATTTACCTTTTAAGAGGAGGAAT	0.165
CGACATGTCCCGCTTCTTTCATTAAACCGTTAGCAACTGTTTTGTTATATACATTTACCTTTTAAGAGGAGGAAT	0.313
CGACATGTCCCGCTTCTTTCATTAAACCGTTAGCAACTGTTTTTCTATATACATTTACCTTTTAAGAGGAGGAAT	0.464
CGACATGTCCCGCTTCTTTCATTAAACCGTTATCAACTGTTTTGCTATATACATTTACCTTTTAAGAGGAGGAAT	0.218
CGACATGTCCCGCTTCTTTCATTAAACCGTTTGCAACTGTTTTGCTATATACATTTACCTTTTAAGAGGAGGAAT	0.331
CGACATGTCCCGCTTCTTTCATTAAACTGTTAGCAACTGTTTTGCTATATACATTTACCTTTTAAGAGGAGGAAT	1.02
CGACATGTCCCGCTTCTTTCATTAACCCGTAAGCAACTGTTTTGCTATATACATTTACCTTTTAAGAGGAGGAAT	0.312
CGACATGTCCCGCTTCTTTCATTAACCCGTTACCAACTGTTTTGCTATATACATTTACCTTTTAAGAGGAGGAAT	0.162
CGACATGTCCCGCTTCTTTCATTAACCCGTTACTCACTGTTTTGGAATATACATTTACCTTTTAAGAGGAGGAAT	0.147
CGACATGTCCCGCTTCTTTCATTAACCCGTTAGAAACTGTTTTGCTATATACATTTACCTTTTAAGAGGAGGAAT	0.187
CGACATGTCCCGCTTCTTTCATTAACCCGTTAGCAACTGTATTGCTATATACATTCACCTTTTAAGAGGAGGAAT	0.379
CGACATGTCCCGCTTCTTTCATTAACCCGTTAGCAACTGTTTTGCCATATACATTTACCTTTTAAGAGGAGGAAT	0.158
CGACATGTCCCGCTTCTTTCATTAACCCGTTAGCAACTGTTTTGCTATATAAATTTACCTTTTAAGAGGAGGAAT	0.627
